Key:
human Mer-Fc = molecular target: T1, human Mer-Fc (human, UniProt Q12866 26-499, limits assumed); test: ELISA, plates with human Mer-Fc, HRP-conjugated anti-mouse IgG, OD 450 nm
T1 construct: also called h-Mer; not shown: Fc part
T1 sequence (looked up): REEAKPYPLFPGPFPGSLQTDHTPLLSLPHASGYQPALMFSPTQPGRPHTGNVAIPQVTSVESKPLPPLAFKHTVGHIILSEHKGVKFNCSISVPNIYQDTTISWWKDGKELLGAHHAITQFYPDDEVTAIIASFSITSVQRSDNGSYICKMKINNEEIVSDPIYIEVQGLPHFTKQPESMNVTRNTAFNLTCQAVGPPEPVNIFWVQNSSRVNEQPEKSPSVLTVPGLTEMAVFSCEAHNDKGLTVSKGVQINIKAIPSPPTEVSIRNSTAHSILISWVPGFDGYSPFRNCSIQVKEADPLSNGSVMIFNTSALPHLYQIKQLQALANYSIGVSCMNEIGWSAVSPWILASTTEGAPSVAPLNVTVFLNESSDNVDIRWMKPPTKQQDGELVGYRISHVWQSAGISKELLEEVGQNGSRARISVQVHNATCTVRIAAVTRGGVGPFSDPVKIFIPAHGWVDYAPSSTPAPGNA
Method: (§1) FIG. 1: ELISA experiments to investigate the affinity and the specificity of mouse monoclonal antibodies against hAxl.
(§2) For cross reaction assay, coated plates were incubated with human Axl-Fc (h-Axl), mouse Axl-Fc (m-Axl) or human Mer-Fc (h-Mer), Tyro-3-Fc (h-Tyro-3) for 1 hour at 37° C. and washed four times in PBST. Plates were incubated with anti-Axl mAbs (2 hours at 37° C.) and washed four times in PBST. Plates were incubated with HRP-conjugated anti-mouse IgG (Sigma) at a 1:2000 dilution in PBST, 1% BSA (1 hour at 37° C.). Finally, an ortho-phenylenediamine solution (Sigma) was added for 30 min at room temperature in the dark and the absorbance was measured at 450 nm.

Tyro-3-Fc (h-Tyro-3) = molecular target: T2, Tyro-3-Fc (h-Tyro-3) (human, UniProt Q06418 41-428, limits assumed); test: ELISA, plates with human Tyro-3-Fc, HRP-conjugated anti-mouse IgG, OD 450 nm
T2 construct: The species is read from the label 'h-Tyro-3'; also called human Tyro-3-Fc; not shown: Fc part
T2 sequence (looked up): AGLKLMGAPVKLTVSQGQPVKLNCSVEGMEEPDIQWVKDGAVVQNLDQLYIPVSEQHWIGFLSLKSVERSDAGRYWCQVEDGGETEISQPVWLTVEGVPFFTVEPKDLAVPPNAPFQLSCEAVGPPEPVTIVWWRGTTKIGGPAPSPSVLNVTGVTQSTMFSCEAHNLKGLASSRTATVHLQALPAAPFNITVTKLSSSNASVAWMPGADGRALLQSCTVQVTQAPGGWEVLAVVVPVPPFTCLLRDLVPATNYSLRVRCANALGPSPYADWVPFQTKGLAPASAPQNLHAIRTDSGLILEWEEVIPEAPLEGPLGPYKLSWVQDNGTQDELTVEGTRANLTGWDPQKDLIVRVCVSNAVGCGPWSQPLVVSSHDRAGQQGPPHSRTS
Method: as §1, §2

[1] = molecular target: human Axl extracellular domain fused to human Fc domain (hAxl-hFc protein; R&D system) (human) (UniProt P30530); test: SPR (BIAcore 3000), hAxl-hFc amine-coupled on CM5 chip, mAb injected at 2 to 133 nM, 25 °C, 1:1 Langmuir model; hAxl-hFc on the CM5 chip, mAb injected at 2 to 133 nM, 25 C
[2] = molecular target: human Axl extracellular domain fused to human Fc domain (hAxl-hFc protein; R&D system) (human) (UniProt P30530); test: SPR (BIAcore), hAxl-hFc amine-coupled to a CM5 chip; 20G7-D9 (666 nM by the text) injected first, lower panel
[3] = molecular target: human Axl extracellular domain fused to human Fc domain (hAxl-hFc protein; R&D system) (human) (UniProt P30530); test: SPR (BIAcore), hAxl-hFc amine-coupled to a CM5 chip; 20G7-D9 (666 nM by the text) injected second, without removing Gas6, upper panel
mouse Axl-Fc = molecular target: T3, mouse Axl-Fc (mouse, UniProt Q00993 20-443, limits assumed); test: ELISA, plates with mouse Axl-Fc, HRP-conjugated anti-mouse IgG, OD 450 nm
T3 construct: also called m-Axl; not shown: Fc part
T3 sequence (looked up): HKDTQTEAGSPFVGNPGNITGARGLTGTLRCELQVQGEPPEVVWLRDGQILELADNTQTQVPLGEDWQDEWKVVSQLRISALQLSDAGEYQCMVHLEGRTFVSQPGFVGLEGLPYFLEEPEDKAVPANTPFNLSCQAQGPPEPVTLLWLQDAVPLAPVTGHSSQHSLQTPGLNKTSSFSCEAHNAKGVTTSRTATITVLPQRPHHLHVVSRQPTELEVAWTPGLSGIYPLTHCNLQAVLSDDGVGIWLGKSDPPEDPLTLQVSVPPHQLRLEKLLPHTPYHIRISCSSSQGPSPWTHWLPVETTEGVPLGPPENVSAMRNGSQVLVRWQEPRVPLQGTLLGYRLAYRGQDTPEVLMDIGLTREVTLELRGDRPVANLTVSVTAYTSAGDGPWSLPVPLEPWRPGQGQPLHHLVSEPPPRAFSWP
Method: as §1, §2

[4] = molecular target: T4, human Axl on the cell surface (A549 cells; pancreatic cancer cell lines) (human, UniProt P30530 26-894); test: flow cytometry on A549 cells, fluorescein-conjugated anti-mouse IgG
T4 construct: whole, on cells; also called cell surface Axl; Axl receptor
T4 sequence (looked up): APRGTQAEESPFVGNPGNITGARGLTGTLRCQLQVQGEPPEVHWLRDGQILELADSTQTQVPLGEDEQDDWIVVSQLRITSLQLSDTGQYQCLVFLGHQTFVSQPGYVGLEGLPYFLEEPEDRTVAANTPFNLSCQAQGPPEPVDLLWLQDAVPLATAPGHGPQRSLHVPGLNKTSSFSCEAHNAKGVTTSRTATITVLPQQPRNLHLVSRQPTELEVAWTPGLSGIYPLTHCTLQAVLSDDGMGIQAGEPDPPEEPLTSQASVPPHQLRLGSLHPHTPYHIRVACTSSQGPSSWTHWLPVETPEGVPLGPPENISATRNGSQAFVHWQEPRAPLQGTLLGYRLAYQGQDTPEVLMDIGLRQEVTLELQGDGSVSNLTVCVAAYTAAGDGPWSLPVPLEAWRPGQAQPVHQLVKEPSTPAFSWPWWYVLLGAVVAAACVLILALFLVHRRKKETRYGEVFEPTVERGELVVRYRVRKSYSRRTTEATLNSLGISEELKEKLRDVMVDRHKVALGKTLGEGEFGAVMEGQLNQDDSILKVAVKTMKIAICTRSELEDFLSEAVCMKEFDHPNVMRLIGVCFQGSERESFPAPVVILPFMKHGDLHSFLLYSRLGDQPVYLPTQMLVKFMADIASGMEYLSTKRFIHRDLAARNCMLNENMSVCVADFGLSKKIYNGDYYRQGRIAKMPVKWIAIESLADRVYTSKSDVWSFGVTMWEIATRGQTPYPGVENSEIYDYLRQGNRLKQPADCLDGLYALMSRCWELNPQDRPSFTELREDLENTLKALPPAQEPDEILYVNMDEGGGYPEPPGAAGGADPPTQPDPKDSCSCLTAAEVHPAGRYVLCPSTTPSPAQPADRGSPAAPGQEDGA
Method: FIG. 2: Flow cytometry analysis of cell surface Axl in A549.
The ability of mouse anti-Axl monoclonal antibodies of the invention to specifically recognize Axl expressing cells was determined by FACS using standard techniques. Briefly, A549 cells (ATCC number: CCL-185) were harvested, stained with purified mouse anti-Axl monoclonal antibodies of the invention at 4° C. for 1 hour, washed three times in PBS-BSA 0.1%, and then stained with fluorescein-conjugated anti-mouse IgG (1:50) (Sigma) at 4° C. in the dark for 45 min. Samples were analyzed on EPICS flow cytometer (Beckman-Coulter, Fullerton, Calif.).

B1: mouse anti-Axl monoclonal antibody 20G7-D9 (antibody, V domains shown)
VH: QVQLQQSGAELMKPGASVKMSCKAAGYTFSSYWIEWVRQRPGHGLEWIGEIFPGSDSTNYNEKFNDRATFTADTSSNTAYMQLSSLTSEDSAVYYCARPLYYGSSAWFAYWGQGTLVTVSA
VL: DIQMTQSPASLSASVGETVTITCRASENIYSYLTWYQQKQRKSPQLLVYNAKTLAEGVPSRFSGSGSGTQFSLKINSLQPEDFGTYYCQHHYATPWTFGGGTKVEIK
notes: the irrelevant control Px is called 'murine IgG1 isotype mAb'; also called mAb 20G7-D9; mAb 20G7D9
- binding result (human Mer-Fc): no binding
- binding result (Tyro-3-Fc (h-Tyro-3)): no binding
- Kd [1]: 53 nM
- response (RU) [2]: 2530 RU
- response (RU) [3]: 2280 RU
- binding result (mouse Axl-Fc): no binding
- binding result [4]: binds
